From publication PMC5452487 come the findings set out here.

Holding throughout (settings): EMSA with 0.75 ug rArcR-ACME and 61.2 pmol biotinylated probe; buffer, salt, pH and temperature not given in the material
Data set [1] concerns the target T1, rArcR-ACME (Staphylococcus aureus USA300_FPR3757) (UniProt E9KNS2).
T1 sequence: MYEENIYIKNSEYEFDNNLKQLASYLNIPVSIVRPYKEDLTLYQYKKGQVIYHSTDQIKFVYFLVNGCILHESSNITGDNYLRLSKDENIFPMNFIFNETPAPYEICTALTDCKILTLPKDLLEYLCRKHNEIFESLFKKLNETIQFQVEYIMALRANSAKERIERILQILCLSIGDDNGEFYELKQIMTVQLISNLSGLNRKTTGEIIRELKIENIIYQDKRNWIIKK
Briefly: competition.

Data set [2] has as its target T1, rArcR-ACME (Staphylococcus aureus USA300_FPR3757). Briefly: UV cross-linking.
For data set [3] the target is unchanged. In words: EMSA.

On to “CAAATGATCACAGCATTTGGTACAGGAATCGGTGGCGACTTTGATCTAGCGAAAGCAAGATATCACAAAATCGTCATTATGACTGATGCCG (double strand) [gyrB fragment, non-specific competitor, 91 bp]”, for which the binding entry in data set [1] was “no binding”.
Take “GTACAAAATACATATTCATACAAAATTTTGCATTGAATAAATCTATATATGTGAAAACCCTCCCTAAACAATTGTGAATTAAATCACACGATGTTTTTTGAAAGCGTTTTATAATGTGAATGT (double strand) [arcACME promoter probe, 123 bp]”: the binding result in data set [2] and in data set [3] was “binds” throughout.
Regarding “GTACAAAATACATATTCATACAAAATTTTGCATTGAATAAATCTATATATGTGAAAACCCTCCCTAAACAATTGTGAATTAAATCACACGATGTTTTTTGAAAGCGTTTTATAATGTGAATGT (double strand) [arcACME promoter fragment, unlabelled specific competitor]”, in data set [1], the binding result is “binds”.
